Assay [1] has as its target T1, proteasome subunit α4 (PSMA7) (Homo sapiens (Human), UniProt O14818).
T1 chain: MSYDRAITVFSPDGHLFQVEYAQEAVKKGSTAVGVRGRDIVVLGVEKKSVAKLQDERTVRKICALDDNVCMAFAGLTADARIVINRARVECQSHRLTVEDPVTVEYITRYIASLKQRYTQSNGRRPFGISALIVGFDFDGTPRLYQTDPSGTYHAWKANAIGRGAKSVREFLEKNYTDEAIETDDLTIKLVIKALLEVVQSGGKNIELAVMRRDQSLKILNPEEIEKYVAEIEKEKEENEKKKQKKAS
As to the kind of experiment: cryo-EM structure of co-purified complex; contact seen only within the assembled multi-subunit intermediate (complete α-ring, POMP, β2); pair not tested in isolation.

The target in assay [2] is T2, proteasome subunit α2 (PSMA2) (Homo sapiens (Human), UniProt P25787).
T2 chain: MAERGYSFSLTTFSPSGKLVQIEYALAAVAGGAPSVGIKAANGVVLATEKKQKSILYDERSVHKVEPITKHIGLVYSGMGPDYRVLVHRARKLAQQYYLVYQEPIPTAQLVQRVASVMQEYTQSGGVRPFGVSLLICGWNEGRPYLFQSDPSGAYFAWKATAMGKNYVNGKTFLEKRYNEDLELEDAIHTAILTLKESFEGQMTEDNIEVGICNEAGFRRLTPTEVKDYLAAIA
The description is as above.

Assay [3] deals with proteasome subunit α6 (PSMA1) (Homo sapiens (Human), UniProt P25786). As to the kind of experiment: cryo-EM structure of co-purified complex; contact seen only within the assembled multi-subunit intermediate (HbYX motifs in α5-α6 and α6-α7 pockets); pair not tested in isolation.
Sequence of proteasome subunit α6 (PSMA1) (P25786 whole entry): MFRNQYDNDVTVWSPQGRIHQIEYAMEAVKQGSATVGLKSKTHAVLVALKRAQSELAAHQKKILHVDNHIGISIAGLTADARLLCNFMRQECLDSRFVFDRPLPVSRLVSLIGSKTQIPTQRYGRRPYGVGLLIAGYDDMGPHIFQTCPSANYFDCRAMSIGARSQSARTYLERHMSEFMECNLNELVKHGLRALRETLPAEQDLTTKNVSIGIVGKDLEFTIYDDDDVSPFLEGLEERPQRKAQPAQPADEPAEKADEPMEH
Assay [4] has as its target T3, proteasome subunit α5 (PSMA5) (Homo sapiens (Human), UniProt P28066).
T3 chain: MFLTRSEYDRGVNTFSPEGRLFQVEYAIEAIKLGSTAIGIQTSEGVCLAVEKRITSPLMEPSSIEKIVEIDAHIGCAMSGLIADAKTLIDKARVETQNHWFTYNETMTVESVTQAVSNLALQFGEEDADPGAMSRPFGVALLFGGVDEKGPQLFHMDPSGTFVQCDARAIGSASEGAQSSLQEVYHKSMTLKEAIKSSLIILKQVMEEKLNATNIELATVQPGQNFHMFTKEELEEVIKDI
As to the kind of experiment: cryo-EM structure of co-purified complex; contact seen within the assembled multi-subunit intermediate (complete α-ring, POMP, β2); isolated pair only cited from earlier work.

Assay [5] has as its target T4, proteasome subunit α7 (PSMA3) (Homo sapiens (Human), UniProt P25788).
T4 chain: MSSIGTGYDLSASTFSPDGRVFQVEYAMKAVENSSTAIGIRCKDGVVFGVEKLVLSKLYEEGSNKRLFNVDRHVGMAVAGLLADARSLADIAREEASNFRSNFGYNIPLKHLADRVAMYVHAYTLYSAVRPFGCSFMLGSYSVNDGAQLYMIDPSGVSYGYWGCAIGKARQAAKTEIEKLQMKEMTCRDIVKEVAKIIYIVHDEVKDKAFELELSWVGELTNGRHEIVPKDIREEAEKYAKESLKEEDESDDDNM
Nature of the assay: cryo-EM structure of co-purified complex; contact seen only within the assembled multi-subunit intermediate (PAC2 C-terminus in α6-α7 pocket); pair not tested in isolation.

Assay [6] has as its target T5, proteasome subunit α3 (PSMA4) (Homo sapiens (Human), UniProt P25789).
T5 chain: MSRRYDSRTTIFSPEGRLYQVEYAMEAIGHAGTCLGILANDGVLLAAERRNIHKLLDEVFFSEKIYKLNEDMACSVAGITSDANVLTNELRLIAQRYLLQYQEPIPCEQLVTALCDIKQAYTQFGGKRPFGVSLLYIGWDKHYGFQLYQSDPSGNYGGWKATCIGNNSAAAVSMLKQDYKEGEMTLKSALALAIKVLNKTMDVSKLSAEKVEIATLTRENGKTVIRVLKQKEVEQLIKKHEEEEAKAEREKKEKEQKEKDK
As to the kind of experiment: cryo-EM structure of co-purified complex; contact seen within the assembled multi-subunit intermediate; isolated pair only cited from earlier yeast two-hybrid.

The target in assay [7] is T5, proteasome subunit α3 (PSMA4). As to the kind of experiment: cryo-EM structure of co-purified complex; contact seen only within structure 1 (complete α-ring, PAC1/PAC2, POMP, β2); pair not tested in isolation.

B1: PAC1–PAC2 heterodimer (protein)
chain 1: MAATFFGEVVKAPCRAGTEDEEEEEEGRRETPEDREVRLQLARKREVRLLRRQTKTSLEVSLLEKYPCSKFIIAIGNNAVAFLSSFVMNSGVWEEVGCAKLWNEWCRTTDTTHLSSTEAFCVFYHLKSNPSVFLCQCSCYVAEDQQYQWLEKVFGSCPRKNMQITILTCRHVTDYKTSESTGSLPSPFLRALKTQNFKDSACCPLLEQPNIVHDLPAAVLSYCQVWKIPAILYLCYTDVMKLDLITVEAFKPILSTRSLKGLVKNIPQSTEILKKLMTTNEIQSNIYT
chain 2: MFVPCGESAPDLAGFTLLMPAVSVGNVGQLAMDLIISTLNMSKIGYFYTDCLVPMVGNNPYATTEGNSTELSINAEVYSLPSRKLVALQLRSIFIKYKSKPFCEKLLSWVKSSGCARVIVLSSSHSYQRNDLQLRSTPFRYLLTPSMQKSVQNKIKSLNWEEMEKSRCIPEIDDSEFCIRIPGGGITKTLYDESCSKEIQMAVLLKFVSEGDNIPDALGLVEYLNEWLQILKPLSDDPTVSASRWKIPSSWRLLFGSGLPPALF
Take B1: the binding result in assay [1], in assay [2], in assay [3], in assay [4] and in assay [5] was “binds” throughout.

B2: proteasome maturation protein (POMP) (protein)
chain: MNARGLGSELKDSIPVTELSASGPFESHDLLRKGFSCVKNELLPSHPLELSEKNFQLNQDKMNFSTLRNIQGLFAPLKLQMEFKAVQQVQRLPFLSSSNLSLDVLRGNDETIGFEDILNDPSQSEVMGEPHLMVEYKLGLL
Turning to B2, in assay [6], the binding result is recorded as “binds”.

B3: PAC3–PAC4 heterodimer (protein)
chain 1: MEDTPLVISKQKTEVVCGVPTQVVCTAFSSHILVVVTQFGKMGTLVSLEPSSVASDVSKPVLTTKVLLGQDEPLIHVFAKNLVAFVSQEAGNRAVLLAVAVKDKSMEGLKALREVIRVCQVW
chain 2: MEGLVVAAGGDVSLHNFSARLWEQLVHFHVMRLTDSLFLWVGATPHLRNLAVAMCSRYDSIPVSTSLLGDTSDTTSTGLAQRLARKTNKQVFVSYNLQNTDSNFALLVENRIKEEMEAFPEKF
As to B3, the binding result in assay [7] is reported as “binds”.

For the origin of these results see paper PMC11327110 (2024).
